Assay results reported in patent US20150072933A1, “NOVEL SEQUENCES FOR THE CONTROL OF REPRODUCTION IN FISH” (Yissum Research Development Company of the Hebrew …, priority 2011, published 2015).
*1 amine or outer side, *2 acyl side, *3 side chain or, on linkers, in order; H or OH if unused. Where no end group is shown, it is not given here. [ ]: non-standard residue; d: D form. NMeF = CN[C@@H](Cc1ccccc1)C(=O)O; Suc = O=C(CCC(=O)[*:2])[*:1]; NMeV = CN[C@H](C(=O)O)C(C)C

T1: zebrafish Tac3rb (tac3 receptor b, NKB receptor) (zebrafish)
T1 chain: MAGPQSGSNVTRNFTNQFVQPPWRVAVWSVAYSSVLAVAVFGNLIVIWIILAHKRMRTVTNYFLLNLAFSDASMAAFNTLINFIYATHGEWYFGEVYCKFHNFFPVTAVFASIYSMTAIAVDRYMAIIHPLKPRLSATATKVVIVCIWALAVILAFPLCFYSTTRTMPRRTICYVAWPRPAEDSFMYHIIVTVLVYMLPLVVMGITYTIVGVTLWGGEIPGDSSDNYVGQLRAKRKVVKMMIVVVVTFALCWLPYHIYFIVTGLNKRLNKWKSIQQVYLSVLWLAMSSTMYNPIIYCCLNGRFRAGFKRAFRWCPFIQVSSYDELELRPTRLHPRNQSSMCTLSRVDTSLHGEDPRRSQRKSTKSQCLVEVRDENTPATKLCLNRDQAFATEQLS

T2: zebrafish Tac3ra (tac3 receptor a, NKB receptor) (zebrafish)
T2 chain: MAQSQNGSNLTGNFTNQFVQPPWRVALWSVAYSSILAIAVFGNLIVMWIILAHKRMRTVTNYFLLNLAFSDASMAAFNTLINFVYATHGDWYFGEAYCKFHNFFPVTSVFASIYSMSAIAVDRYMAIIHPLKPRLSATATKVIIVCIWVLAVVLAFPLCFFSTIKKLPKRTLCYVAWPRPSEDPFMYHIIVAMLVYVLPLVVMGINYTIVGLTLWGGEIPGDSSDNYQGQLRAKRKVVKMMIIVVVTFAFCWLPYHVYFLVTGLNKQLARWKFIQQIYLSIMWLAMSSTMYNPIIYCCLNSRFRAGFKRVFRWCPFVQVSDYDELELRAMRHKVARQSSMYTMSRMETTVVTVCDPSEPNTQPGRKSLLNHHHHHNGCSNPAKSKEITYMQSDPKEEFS

T3: human NK3R (human NKB receptor) (human, UniProt P29371 1-465)
T3 sequence (looked up): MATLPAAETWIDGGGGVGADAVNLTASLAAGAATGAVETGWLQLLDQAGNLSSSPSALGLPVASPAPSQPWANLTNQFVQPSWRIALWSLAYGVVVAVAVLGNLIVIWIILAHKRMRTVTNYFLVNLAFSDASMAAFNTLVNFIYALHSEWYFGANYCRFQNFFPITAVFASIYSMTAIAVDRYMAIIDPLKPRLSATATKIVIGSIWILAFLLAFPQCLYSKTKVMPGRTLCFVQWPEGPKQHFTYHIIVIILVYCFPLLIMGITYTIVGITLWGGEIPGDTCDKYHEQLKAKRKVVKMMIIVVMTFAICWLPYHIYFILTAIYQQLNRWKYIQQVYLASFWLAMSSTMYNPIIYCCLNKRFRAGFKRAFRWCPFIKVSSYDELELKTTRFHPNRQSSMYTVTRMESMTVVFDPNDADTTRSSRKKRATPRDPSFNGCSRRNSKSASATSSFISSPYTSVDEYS

B1: NKBa-analog (Succ-Asp-Ile-Phe-N(Me)Val-Gly-Leu-Met-NH2) (peptide)
peptide: Suc-DIF[NMeV]GLM-NH2
SMILES: CC[C@H](C)[C@H](NC(=O)[C@H](CC(=O)O)NC(=O)CCC(=O)O)C(=O)N[C@@H](Cc1ccccc1)C(=O)N(C)[C@H](C(=O)NCC(=O)N[C@@H](CC(C)C)C(=O)N[C@@H](CCSC)C(N)=O)C(C)C

Legend:
zfTac3ra [1] = assay: Receptor transactivation assay, SRE-Luc reporter (PKC activation), COS-7 cells expressing zfTac3ra; type: cell-based, zebrafish; conditions: mean ± SEM
Protocol: (§1) In order to study the signaling pathways of the novel zebrafish NKBs, the entire coding regions of zftac3ra (denoted by SEQ ID NO:6) or zftac3rb (denoted by SEQ ID NO:7), or the cDNA clone for human NK3R (obtained from the Missouri S&T cDNA Resource Center, were inserted into pcDNA3.1 (Invitrogen). The luciferase assay was conducted according to Biran et al., 2008 [4] COS-7 cells were grown in DMEM supplemented with 10% FBS, 1% glutamine, 100 U/ml penicillin, and […] streptomycin (Biological Industries) under 5% CO2 until confluent. Cotransfection of either pc-zftac3ra, pc-zftac3rb or pc-Htac3r (at 3 μg/plate), a reporter plasmid (at 2 μg/plate), and pCMV-β-galactosidase (at 1 μg/plate) was carried out with FuGENE 6.0 reagent (Roche). The cells were serum starved for 36 h, stimulated with vehicle or various concentrations of either human (Sigma) or zebrafish NKBs for 6 h, and then harvested and analyzed. Lysates prepared from the harvested cells were assayed for both luciferase activity and β-galactosidase activity, which was used as an internal standard to normalize the luciferase activity directed by the test plasmid. Transfection experiments were performed in triplicate with three independently isolated sets. Protein structure prediction of zebrafish NKBa, NKBb or NKF were performed on I-Tasser servers.
(§2) The response, binding selectivity and signal transduction pathways of the novel tachykinin receptors to their agonists were evaluated by functional expression analysis, using COS-7 cells.
(§3) The NKB analogues (i.e. the NKBa-analog, NKBb-analog and NKF-analog, as denoted by SEQ ID NO. 44-46) were first analyzed in comparison to their native forms in a transactivation assay, using reporter genes for specific signal transduction pathways. To validate the specificity of the serum-responsive element (SRE)-Luc and cAMP-responsive element (CRE)-Luc reporter systems, specific activators for PLC/PKC and AC/PKA signaling pathways were used in control experiments.
(§4) Thus, the ability of the three novel piscine peptides (namely, NKBa, NKBb and NKF, denoted by SEQ ID NO.40, 41 and 42), as well as the ability of the three analogous agonistic peptides, namely, NKBa-analog, NKBb-analog and NKF-analog, to differentially activate the different tac3 receptors, using SRE as a reporter gene that follows PKC activation and CRE as a reporter gene for the PKA pathway, was tested. Human NK3R (human NKB receptor) and human NKB served as controls.

zfTac3ra [2] = assay: Receptor transactivation assay, CRE-Luc reporter (PKA activation), COS-7 cells expressing zfTac3ra; type: cell-based, zebrafish; conditions: mean ± SEM
Protocol: as §1, §2, §3, §4

zfTac3rb [3] = assay: Receptor transactivation assay, CRE-Luc reporter (PKA activation), COS-7 cells expressing zfTac3rb; type: cell-based, zebrafish; conditions: mean ± SEM
Protocol: as §1, §2, §3, §4

zfTac3rb [4] = assay: Receptor transactivation assay, SRE-Luc reporter (PKC activation), COS-7 cells expressing zfTac3rb; type: cell-based, zebrafish; conditions: mean ± SEM
Protocol: as §1, §2, §3, §4

[5] = molecular target: T1, zebrafish Tac3rb (tac3 receptor b, NKB …); assay: cell-based or functional assay
[6] = molecular target: T2, zebrafish Tac3ra (tac3 receptor a, NKB …); assay: cell-based or functional assay
[7] = molecular target: T3, human NK3R (human NKB receptor); assay: cell-based or functional assay
[8] = molecular target: T1, zebrafish Tac3rb (tac3 receptor b, NKB …); assay: cell-based or functional assay
[9] = molecular target: T2, zebrafish Tac3ra (tac3 receptor a, NKB …); assay: cell-based or functional assay
[10] = molecular target: T3, human NK3R (human NKB receptor); assay: cell-based or functional assay; remark: listed apart in the source
[11] = molecular target: T1, zebrafish Tac3rb (tac3 receptor b, NKB …); assay: cell-based or functional assay
[12] = molecular target: T2, zebrafish Tac3ra (tac3 receptor a, NKB …); assay: cell-based or functional assay
[13] = molecular target: T3, human NK3R (human NKB receptor); assay: cell-based or functional assay; remark: listed apart in the source

Molecule | EC50 (zfTac3ra [1]; Table 5, COS-7 cells, SRE-Luc follows PKC activation, read-out: EC50 SRE-Luc zfTac3ra) [nM] | EC50 (zfTac3ra [1]; Table 7 (native peptides and analogues), PKC activation, read-out: EC50 using SRE, zfTac3ra) [nM] | EC50 (zfTac3ra [2]; Table 5, COS-7 cells, CRE-Luc follows PKA activation, read-out: EC50 CRE-Luc zfTac3ra) [nM] | EC50 (zfTac3ra [2]; Table 6 (native peptides and analogues), PKA activation, read-out: EC50 using CRE-Luc, zfTac3ra) [nM] | EC50 (zfTac3rb [3]; Table 5, COS-7 cells, CRE-Luc follows PKA activation, read-out: EC50 CRE-Luc zfTac3rb) [nM] | EC50 (zfTac3rb [3]; Table 6 (native peptides and analogues), PKA activation, read-out: EC50 using CRE-Luc, zfTac3rb) [nM] | EC50 (zfTac3rb [4]; Table 5, COS-7 cells, SRE-Luc follows PKC activation, read-out: EC50 SRE-Luc zfTac3rb) [nM] | EC50 (zfTac3rb [4]; Table 7 (native peptides and analogues), PKC activation, read-out: EC50 using SRE, zfTac3rb) [nM] | EC50, SRE reporter gene that follows PKC activation, transfected COS-7 cells [5] [nM] | EC50, SRE reporter gene that follows PKC activation, transfected COS-7 cells [6] [nM] | EC50, SRE reporter gene that follows PKC activation, transfected COS-7 cells [7] [nM] | EC50, CRE-Luc to follow PKA activation, transfected COS-7 cells [8] [nM] | EC50, CRE-Luc to follow PKA activation, transfected COS-7 cells [9] [nM] | EC50, CRE-Luc to follow PKA activation, transfected COS-7 cells [10] [nM] | EC50, CRE-Luc reporter (PKA activation), transfected COS-7 cells [11] [nM] | EC50, SRE-Luc reporter (PKC activation), transfected COS-7 cells [11] [nM] | EC50, CRE-Luc reporter (PKA activation), transfected COS-7 cells [12] [nM] | EC50, SRE-Luc reporter (PKC activation), transfected COS-7 cells [12] [nM] | EC50, CRE-Luc reporter (PKA activation), transfected COS-7 cells [13] [nM] | EC50, SRE-Luc reporter (PKC activation), transfected COS-7 cells [13] [nM]
CSCC[C@H](NC(=O)[C@H](CC(C)C)NC(=O)CNC(=O)[C@@H](NC(=O)[C@H](Cc1ccccc1)NC(=O)[C@H](Cc1ccccc1)NC(=O)[C@H](CC(=O)O)NC(=O)[C@H](Cc1c[nH]cn1)NC(=O)[C@H](CCSC)NC(=O)[C@@H](N)CC(=O)O)C(C)C)C(N)=O [huNKB, reference compound] | 2.2 ± 1.49 | 2.2 ± 1.49 | 12.9 ± 13.3 | 12.9 ± 13.3 | 8.12 ± 1.56 | 8.12 ± 1.56 | 0.82 ± 0.16 | 0.82 ± 0.16 |  |  |  |  |  |  |  |  |  |  |  | 
EMHDIFVGLM-NH2 [Zebrafish Tac3a peptide, neurokinin Ba (EMHDIFVGLM-NH2)] |  |  |  |  |  |  |  |  | 26.1 | 0.62 | 0.49 | 16.4 | 4.75 | 6.64 | 4.55 | 1.47 | 5.75 | 0.5 | 3.73 | 0.49
DMHDFFVGLM-NH2 [human NKB (neurokinin B)] |  |  |  |  |  |  |  |  | 0.82 | 2.2 |  | 8.12 | 12.9 |  | 8.12 | 0.82 | 12.9 | 2.2 |  | 
Suc-DF[NMeF]GLM-NH2 [Senktide (Succ-Asp-Phe-N(Me)Phe-Gly-Leu-Met-NH2)] |  |  |  |  |  |  |  |  | 2.72 | 2.68 |  | 20.1 | 49 |  | 20.1 | 2.72 | 49 | 2.67 |  | 
STGINREAHLPFRPNMNDIFVGLL-NH2 [Zebrafish Tac3b peptide, neurokinin Bb (STGINREAHLPFRPNMNDIFVGLL-NH2)] |  |  |  |  |  |  |  |  | 15.3 | 6.06 | 204 | 191 | 99.6 | 336 | 519 | 33.8 | 237 | 8.96 | 605 | 204
B1 |  |  |  |  |  |  |  |  | 0.29 | 0.15 | 3.44 | 11.9 | 6.94 | 16.8 |  |  |  |  |  | 
Suc-DF[NMeV]GLM-NH2 [NKBb-analog (Succ-Asp-Phe-N(Me)Val-Gly-Leu-Met-NH2)] |  |  |  |  |  |  |  |  | 0.23 | 0.06 | 0.94 | 2.18 | 1.68 | 2.19 |  |  |  |  |  | 
XDSFXGLM (N-terminal succinyl (Succ) on Asp; N(Me)Val; C-terminal amide (-NH2)) [NKF-analog (Succ-Asp-Ser-Phe-N(Me)Val-Gly-Leu-Met-NH2)] |  |  |  |  |  |  |  |  | 0.54 | 0.31 | 0.71 | 7.75 | 9.14 | 7.33 |  |  |  |  |  | 
